Measurements from patent US20040019918.

Molecular target: GST-MKK4 fusion protein (available from Upstate Biotechnologies, Inc)

Protein | phosphorylation of GST-MKK4 (32P incorporation from [gamma-32P]-ATP, SDS-PAGE, imaging)
purified mouse MEKK2 (protein) MDDQQALNSIMQDLAVLHKASRPALSLQETRKAKPSSPKKQNDVRVKFEHRGEKRILQVTRPVKLEDLRSKSKIAFGQSMDLHYTNNELVIPLTTQDDLDKAVELLDRSIHMKSLKILLVVNGSTQATNLEPSPSPEDLNNTPLGAERKKRLSVVGPPNRDRSSPPPGYIPDILHQIARNGSFTSINSEGEFIPESMDQMLDPLSLSSPENSGSGSCPSLDSPLDGESYPKSRMPRAQSYPDNHQEFTDYDNPIFEKFGKGGTYPRRYHVSYHHQEYNDGRKTFPRARRTQGTSFRSPVSFSPTDHSLSTSSGSSVFTPEYDDSRIRRRGSDIDNPTLTVTDISPPSRSPRAPTNWRLGKLLGQGAFGRVYLCYDVDTGRELAVKQVQFNPESPETSKEVNALECEIQLLKNLLHERIVQYYGCLRDPQEKTLSIFMELSPGGSIKDQLKAYGALTENVTRKYTRQILEGVHYLHSNMIVHRDIKGANILRDSTGNIKLGDFGASKRLQTICLSGTGMKSVTGTPYWMSPEVISGEGYGRKADIWSVACTVVEMLTEKPPWAEFEAMAAIFKIATQPTNPKLPPHVSDYTRDFLKRIFVEAKLRPSAEELLRHMFVHYH | comparable to the activity of purified mouse MEKK2
His-tagged hMEKK2 (polyhistidine-hMEKK2 fusion) (protein) HHHHHHMDDQQALNSIMQDLAVLHKASRPALSLQETRKAKSSSPKKQNDVRVKFEHRGEKRILQFPRPVKLEDLRSKAKIAFGQSMDLHYTNNELVIPLTTQDDLDKAVELLDRSIHMKSLKILLVINGSTQATNLEPLPSLEDLDNTVFGAERKKRLSIIGPTSRDRSSPPPGYIPDELHQVARNGSFTSINSEGEFIPESMDQMLDPLSLSSPENSGSGSCPSLDSPLDGESYPKSRMPRAQSYPDNHQEFSDYDNPIFEKFGKGGTYPRRYHVSYHHQEYNDGRKTFPRARRTQGTSLRSPVSFSPTDHSLSTSSGSSIFTPEYDDSRIRRRGSDIDNPTLTVMDISPPSRSPRAPTNWRLGKLLGQGAFGRVYLCYDVDTGRELAVKQVQFDPDSPETSKEVNALECEIQLLKNLLHERIVQYYGCLRDPQEKTLSIFMEYMPGGSIKDQLKAYGALTENVTRKYTRQILEGVHYLHSNMIVHRDIKGANILRDSTGNVKLGDFGASKRLQTICLSGTGMKSVTGTPYWMSPEVISGEGYGRKADIWSVACTVVEMLTEKPPWAEFEAMAAIFKIATQPTNPKLPPHVSDYTRDFLKRIFVEAKLRPSADELLRHMFVHYH | comparable to the activity of purified mouse MEKK2, and significantly above the background levels seen with control extracts
